FireProtDB

Conditions: Bacillus amyloliquefaciens, whole UniProt chain shown
[1] = pH 5.8, Thermal, DSC, acetate 10 mM, reversible: yes
[2] = pH 6.2, Thermal, DSC, PIPES 0.01 M, NaCl 0.05 M, reversible: yes(54%)
[3] = pH 6.3, 25 °C, GdnSCN, CD, Sodium acetate 50 mM, reversible: yes
[4] = pH 6.3, 25 °C, Thermal, Fluorescence, MES 50 mM, KCl, reversible: yes
[5] = pH 6.3, 25 °C, Urea, CD, MES 50 mM, reversible: yes
[6] = pH 6.3, 25 °C, Urea, Fluorescence, MES 19.3 mM, reversible: yes
[7] = pH 6.3, 25 °C, Urea, Fluorescence, MES 50 mM, reversible: yes
[8] = pH 6.3, Thermal, DSC, MES 50 mM, reversible: yes
[9] = pH 8, 25 °C, Urea, CD, Tris-HCl 25 mM

B1: Ribonuclease wild type, P00648 (protein)
chain: MMKMEGIALKKRLSWISVCLLVLVSAAGMLFSTAAKTETSSHKAHTEAQVINTFDGVADYLQTYHKLPDNYITKSEAQALGWVASKGNLADVAPGKSIGGDIFSNREGKLPGKSGRTWREADINYTSGFRNSDRILYSSDWLIYKTTDHYQTFTKIR
- Tm [1]: 54.3 °C
- heat capacity change of unfolding [1]: 1.37 kcal/mol/K
- unfolding enthalpy (calorimetric) [1]: 126 kcal/mol
- unfolding enthalpy (van 't Hoff) [1]: 124 kcal/mol
- unfolding free energy (pH 6, 25 °C, Thermal, CD, MES 50 mM, reversible: yes): 10 kcal/mol
- Tm [2]: 54.8 °C
- unfolding enthalpy (calorimetric) [2]: 128 kcal/mol
- denaturant m value [3]: 14.3 kcal/mol/M
- denaturant midpoint (higher = more stable) [3]: 0.77 M
- unfolding free energy [3]: 11 kcal/mol
- unfolding free energy (pH 6.3, 25 °C, Thermal, DSC, MES 50 mM, reversible: yes): 8.52 kcal/mol
- heat capacity change of unfolding [4]: 1.88 kcal/mol/K
- unfolding enthalpy (van 't Hoff) [4]: 84.5 kcal/mol
- unfolding free energy [4]: 10.2 kcal/mol
- unfolding free energy (pH 6.3, 25 °C, Thermal, Fluorescence, MES 50 mM): 10.2 kcal/mol
- denaturant m value [5]: 2.02 kcal/mol/M
- denaturant midpoint (higher = more stable) [5]: 4.53 M
- unfolding free energy [5]: 9.18 kcal/mol
- denaturant midpoint (higher = more stable) [6]: 2.27 M
- unfolding free energy [6]: 10.5 kcal/mol
- denaturant m value [7]: 1.92 kcal/mol/M
- denaturant midpoint (higher = more stable) [7]: 4.58 M
- unfolding free energy [7]: 8.79 kcal/mol
- unfolding free energy (pH 6.3, 25 °C, Urea, Fluorescence, MES 1 M): 8.9 kcal/mol
- Tm [8]: 51.5 °C
- unfolding enthalpy (calorimetric) [8]: 127 kcal/mol
- unfolding enthalpy (van 't Hoff) [8]: 126 kcal/mol
- denaturant m value [9]: 1.84 kcal/mol/M
- unfolding free energy [9]: 7.58 kcal/mol
